Results taken from paper doi:10.1101/2024.03.19.585761.

Molecular target: ErbB2 (natural, endogenous in BT474 and MCF7 cells) (human (endogenous in MCF7 and BT474)) (UniProt P04626)
Assay: PICO

For “ErbB3 (endogenous in BT474 and MCF7 cells) (from UniProt P21860 20-1342) (receptor)”, the ErbB2:ErbB3 complexes per cell (ppc), BT474 mock, antibody pair TTZ-2F12 was 662 ppc, the ErbB2:ErbB3 complexes per cell (ppc), BT474 mock, antibody pair TTZ-Ab90 was 831 ppc and the ErbB2:ErbB3 complexes per cell (ppc), MCF7 dactolisib, antibody pair TTZ-2F12 was 8670 ppc. The ErbB2:ErbB3 complexes per cell (ppc), MCF7 mock, antibody pair TTZ-2F12 was 4370 ppc, the ErbB2:ErbB3 complexes per cell (ppc), MCF7 mock, antibody pair TTZ-Ab90 was 5200 ppc and the ErbB2:ErbB3 complexes per cell, BT474 dactolisib (molecules per cell) was < 181. The percent of ErbB2 bound to ErbB3, BT474 mock was 0.09%.
